Experiments:
[1] = Stabilization (serum stability / pharmacokinetic) study: circulating free GLP-1 in rats by GLP-1 (7-37) ELISA; format: in vivo; settings: Wistar rats, s.c., 500 μg GLP-1/kg, n = 6 per group
Protocol: The stabilities of wild-type hydrophobin/GLP-1 and hydrophobin E24K/GLP-1 complexes were investigated to determine whether the complex protects GLP-1 against protease degradation. Two complexes, hydrophobin/GLP-1 (pH 7.0, molar ratio of 1:10) and hydrophobin E24K/GLP (pH 4.0, molar ratio of 1:10) were administered subcutaneously to male Wistar rats (500 μg GLP-1/kg body weight, n = 6 per group), and blood samples from the rats were directly drawn into P700*, K2EDTA tubes (BD Biosciences, Franklin Lakes, NJ) by venipuncture at 0.5, 1, 4, 12, 24, 48, 72 and 96 h. Serum samples (200 μl) were immediately analyzed using a native GLP-1 (7-37) ELISA kit after being centrifuged for 20 min at 13,000 rpm. The amount of free GLP-1 measured in this assay was considered an indicator of the serum serum stability of the complex.

insulin secretion = assay: Insulin stimulation assay after oral glucose administration; format: in vivo; settings: Wistar rats, s.c. 100 μg GLP-1/kg 30 min before oral glucose 10 g/kg, n = 3 per group, mean ± SE
Protocol: The insulin secretion assay was performed by injecting the complex (100 μg GLP-1/kg body weight) into male Wistar rats (n = 3 per group). Wild-type GLP-1 (100 μg/kg body weight) and saline were injected subcutaneously as controls. Glucose (10 g/kg body weight, a standard dose for oral glucose administration) was orally administered 30 min after injections of the complexes. […] Blood samples were assayed for insulin levels using a rat insulin RIA kit.

INS-1 cells = assay: cAMP accumulation measurement (HTRF); format: cell-based, rat
Protocol: For the cAMP assay, INS-1 cells (1.0 × 10^5 cells) were seeded and plated in each well of a 96-well opaque white plate. […] Subsequently, 10 μg of GLP-1 or complex was added. The assay plate was treated with 2.5 μl/well cAMP and an equal volume of anti-cAMP conjugate (Cisbio) after a 1 h incubation. The homogenous time-resolved fluorescence (HTRF) signal was read on a SpectraMax M5 (Molecular Device) microplate reader. The ratio of […] at 665 nm and 620 nm (×10,000) was calculated and plotted.

blood glucose = assay: Single-dose glucoregulatory assay (glucose tolerance test); format: in vivo; settings: Wistar rats, GLP-1 alone, glucose 2 g/kg i.p.
blood glucose and HbA1c = assay: Long-term anti-diabetic activity (glucose, HbA1c) over 46 days; format: in vivo; settings: ZDF rats, 250 μg/kg body weight every three days, glucometer
Protocol: Male ZDF rats (n = 11 per group) were treated with complex (250 μg/kg/3 days) for the entire experimental period (46 days). The control groups were injected with wild-type GLP-1 (250 μg/3 days). HbA1c levels were assessed using a DCA 200 analyzer (Bayer Diagnostics), and glucose levels were monitored during the experimental period.

[2] = tested on: dipeptidyl peptidase IV (DPP-IV); settings: cited from earlier work
Excerpt: The extremely poor serum stability renders the therapeutic administration of GLP-1 impractical; therefore, many efforts have focused on altering the pharmacokinetic properties of GLP-1 by developing a series of complexes and analogs, such as exenatide, liraglutide and albiglutide. […] In ad ...

[3] = target: hydrophobin E24K (mutated at the 24th residue)
[4] = target: wild-type hydrophobin protein (HGFI)

AUC of free GLP-1 in the serum of Wistar rats within 96 h after subcutaneous injection of the complex, fold over GLP-1 alone (GLP-1 (7-37) ELISA) [3] | AUC of free GLP-1 in the serum of Wistar rats within 96 h after subcutaneous injection of the complex, fold over GLP-1 alone (GLP-1 (7-37) ELISA) [4] | Substance | time after administration at which circulating GLP-1 was undetectable [1] | insulin level at 5 min after oral glucose (insulin secretion) | peak cellular cAMP level (INS-1 cells; INS-1 cells 1.0 × 10^5, 500 μM IBMX, 10 μg GLP-1, at 2 min, HTRF, mean ± SE) | time at which cAMP declined to baseline (INS-1 cells; INS-1 cells, HTRF-cAMP kit) | time of cAMP peak (INS-1 cells; INS-1 cells, HTRF-cAMP kit) | blood glucose in single-dose glucose tolerance test (blood glucose) | long-lasting glucose regulatory effect (blood glucose and HbA1c) | renal clearance (time) ([2]; in vivo) | lifetime in vivo ([2]; native GLP-1, in vivo, inactivation by DPP-IV) | serum stability of GLP-1 ([2]; rapid degradation by DPP-IV)
– | – | glucagon-like peptide-1 [GLP-1] | 4 h | 827.09 ± 37.77 pmol/L | 17.03 ± 0.94 pmol/10^5 cells | 10 min | 2 min | remained at high levels | failed to produce a similar glucose regulatory effect | less than 10 min | < 2 min | 3 to 5 min
3 fold | 6.3 fold | glucagon-like peptide-1 (GLP-1) | – | – | – | – | – | – | – | – | – | –
